Results published in the supplement of paper PMC12042874.
± gives the uncertainty stated by the source.

Test: amyloid nucleation score (Sup35N fusion, yeast selection) (log enrichment); library NNK3; higher = more nucleation; inactive = no reads after selection
Procedure, shortened: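 Growth for 7 days at 30°C on medium lacking adenine and uracil followed a 24-hour induction with 100 μM copper sulfate of psi-negative yeast expressing peptides of 20 random codons fused to Sup35N. Input and output plasmid inserts were sequenced with Illumina, and sequences with under 100 input reads were excluded. Nucleation score is the DiMSum log enrichment of output over input reads, centred on the mode score of non-aggregating sequences.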

Row | Substance | amyloid nucleation score
1 | CEMLMGRVIFWSPQPQLWNY | inactive
2 | IVRRGLKMCG | inactive
3 | CLIFVWATIDYNYFCLS | 0.6 ± 0.16
4 | AWWMLN | inactive
5 | ETDVHSYFVSLYSYPFAVEP | inactive
6 | RSSKSEGYGFVGVGI | inactive
7 | GRRSNCINSVNSGTRGRRRA | inactive
8 | KNLDKLVKMYH | inactive
9 | YDSYTGRHNKLILRM | inactive
10 | RAHPALVWMIARTKSSSICL | inactive
11 | VSSAMYYLFKGLAETLRYSS | inactive
12 | ACCIAGL | inactive
13 | SLGLNTPAREFYWGCILTFG | inactive
14 | LNPTAYYVVPLVLALAWISH | inactive
15 | VPWGIVSFA | inactive
16 | VTLQSSSQVSSCVNNSR | inactive
17 | GPSLVVNDLFGFCMVMYLND | inactive
18 | VCGNMVSLVVHPFLFSYVCD | inactive
19 | LKGTCFLIPYLVTSGSSLVS | inactive
20 | HVVFNIIFWYSGRIGLSDIT | 1.94 ± 0.084
21 | SLLWCKANPKRF | inactive
22 | KKMHNVALGFMFIVVG | inactive
23 | VINRHVCGRVGMLTGFDGLT | inactive

Row | Substance | amyloid nucleation score
24 | VWVMSSWTVRIISPTVWMLV | inactive
25 | TQDCG | inactive
26 | SRTVKSRGSAQQDCGRVLRD | inactive
27 | FGVIRHERMEMWRHRSNRCV | inactive
28 | TKTFSDVMLYQCAARCKDLH | inactive
29 | KYCNFTGVFWQTNIFTVVPM | 2.17 ± 0.087
30 | GVNVTKVFTFRMVSCGPDDF | 0.294 ± 0.21
31 | AVIIDIHGINPMG | inactive
32 | GRKDAKR | inactive
33 | IQTQTGTLVSRPLQPTAVVR | -0.007 ± 0.82
34 | CRVLDFSFSYFGMIFKLGTI | inactive
35 | FIPPSLCIITS | inactive
36 | ERRASLGYNHIL | inactive
37 | DAYGLYYTSYYPGT | inactive
38 | VPTVRLTSSSFL | inactive
39 | RWNVHCYAMLFDVGLVDARL | inactive
40 | VKTYFTSLRFVISMGWLNNQ | inactive
41 | FSEASPLYVTSPRQSSLPRP | inactive
42 | IVLNIMHNVSHFLGLYVEG | inactive
43 | LYCGDSI | inactive
44 | YVSIWNHDADRGRC | inactive
45 | VSALSGGFMENCCQSNFLTP | inactive
46 | YGSRW | inactive

Row | Substance | amyloid nucleation score
47 | DVFSDSQVVENRV | inactive
48 | SQYTRCSVYIVW | 1.43 ± 0.079
49 | LNTPPQVSMGSEGLSFNMSF | inactive
50 | IFSVFLLTMLEQRQKAHSLM | inactive
51 | MVCNGFRDDRVMIVK | inactive
52 | KSEFSRSHWESDD | inactive
53 | QKMPSANDRLCISSFLYNLE | inactive
54 | ESDGCNNQFRHWSHCRSKNP | inactive
55 | SNCFRILYTCAVAQLPPCMR | inactive
56 | VVLCVLEYYKFF | 0.848 ± 0.25
57 | NTRLSRLKIVFPCL | inactive
58 | RIFLIICKMYYFRNNRLFRM | -0.508 ± 0.8
59 | KASVSTRFMII | inactive
60 | CVFCVNRTLLIVWIMVRY | inactive
61 | KMRSSVYFLDYNWNKTLPCL | -0.541 ± 1.1
62 | GCECGISHLVLGAKVVPSMI | inactive
63 | VNVVEFTRFRAW | 0.585 ± 0.35
64 | WWDTLIAGSLPKLTWNQKTG | inactive
65 | VTSVRPIYSRCLLNYMLRSV | inactive
66 | LYEAVDRGLSRR | inactive
67 | HCHDVGVLLIKFCNNLWCSH | 1.99 ± 0.1
68 | LAVFSNRRCFFLENQYHRRS | inactive
69 | LCSVDVVLPVKYCVLPDH | 1.76 ± 0.076

Row | Substance | amyloid nucleation score
70 | NPDLVFWFKYLWYDGSCQ | inactive
71 | WAWNQSGFTPLYLCLEAWWS | inactive
72 | SVIARVVRPMLRCKVSSMSM | inactive
73 | TRFLCSGV | inactive
74 | VVEPNTRVIWRLLHIDLDKQ | inactive
75 | TTEDLSVG | inactive
76 | NSVRYLTWVAFLVCLMAYML | inactive
77 | RTGPTRALRVLHLDAMDALV | inactive
78 | NTLGGRLLSLCARGMAIDCL | 0.625 ± 0.35
79 | ADMGGSVGHVSNKSVSSNLL | inactive
80 | LAEVMTVLLFDYVNHWGSAI | inactive
81 | STHFRCELQRICF | inactive
82 | RLMFWRELGLFSKFKLSIQG | inactive
83 | TKWANR | inactive
84 | FYYDYSLCPCYYVGDYEHES | 2.41 ± 0.056
85 | KFSNSASFSGFYFNNYLSSQ | 0.95 ± 0.096
86 | VVSRVMTGSHHVRQFRM | inactive
87 | RCCFWVMLFNYARGKRTWCH | inactive
88 | LFGCEQRYP | inactive
89 | SESTFYMGRLFKEGPRKHVT | inactive
90 | VLVCSAMNGFSFHNLSH | 0.872 ± 0.15
91 | MPLTFTSRSSDVICLNVGSG | -0.232 ± 0.62
92 | AMMVRCFRDPKHEK | inactive

Row | Substance | amyloid nucleation score
93 | EDSMRYCH | inactive
94 | IMHGSNMVRRGLVQY | inactive
95 | FAVQCWKAGVAKNYGMHFVC | inactive
96 | MFSSLV | inactive
97 | YLNFIGTLEV | inactive
98 | NNYVMA | -0.231 ± 1.1
99 | CHMCVVLAV | inactive
100 | YSRDSGCRIKVVPALTVRGR | inactive
101 | NWGSYSMDMRSCSGINRRP | inactive
102 | IMCRLMSKVYTMPQYEILSF | inactive
103 | EVLYYRFLF | inactive
104 | YIQITQMAALARLYIYMRMC | inactive
105 | LVLVQEKHRSRTAEFDHRLT | -0.186 ± 0.94
106 | TVKYHGSPCVLHDLLIVERR | inactive
107 | NGTATADRSNKSVPFPSI | inactive
108 | SVTFSHVRTSRIRCGIMVYP | inactive
109 | LLGCAYTGSTFHGNVGSFVL | inactive
110 | DDMTYGSVCNKSGRTPLLPS | inactive
111 | SNGKVTLYKRLRDTSPQGIY | inactive
112 | YFRANVRLKLEVMQRKKSPS | 2.28 ± 0.075
113 | DSFVLSTTFLSSGTSAACLG | -1.32 ± 2.5
114 | QPLARRIGHISV | inactive
115 | GHGSFE | inactive

Row | Substance | amyloid nucleation score
116 | RVKVSYASYARK | 1.49 ± 0.12
117 | HGGCC | inactive
118 | LMKMHQCDSKVWNEMGDASN | inactive
119 | TEQRMQ | inactive
120 | SWSANSCFVRIEKISLHNVG | inactive
121 | HLTLSAQRATSVVCERLQIS | inactive
122 | VKVLWFSDCSSLYCHSVDGP | inactive
123 | KPGIIIVFVGHG | inactive
124 | RMGVPTSYPDPDLSNDVER | inactive
125 | PPVLVNGLTLKWEGVYSVNY | 0.802 ± 0.21
126 | DMYVLLMRTQSLGMPLIGIS | inactive
127 | RDHSTMQTEVLEWSRNPSMG | inactive
128 | FSLMLSRTTMAIFTDIRDWG | inactive
129 | MGMFTNPT | inactive
130 | WLHSGYGSNLPKATMRYCPN | inactive
131 | LMDPNGLVQGLFYMELLT | inactive
132 | VDFYLR | inactive
133 | PIPTKLLVLKRQSTMHLDRF | inactive
134 | EVCQCRPTTVSLARVGRIVV | inactive
135 | RGTVSQFVMAVNWFTSFVKR | inactive
136 | ILYDDSCLFVTASWTSYVFV | 1.4 ± 0.073
137 | SGVRANFDFLASVAAHPLNS | inactive
138 | MGMLNGSSSMSDGYVYGGLW | inactive

Row | Substance | amyloid nucleation score
139 | YSQVVW | inactive
140 | LVALKSHDT | inactive
141 | TGFYDCNLGLDLCIAIWVCS | -0.156 ± 0.34
142 | SIVICS | inactive
143 | VMTVVRKSSSSVVAISWISE | 0.392 ± 0.54
144 | NTVTHR | inactive
145 | LFGCNERCFYFAF | inactive
146 | NALCSHTILLYGEVMLKSWL | inactive
147 | RSVVLNRADMECKQELVNLN | inactive
148 | SDKPSMLKMIHVMR | inactive
149 | STSFNIRIFMYKFAYF | 1.31 ± 0.095
150 | NSVQAWPMIELEQPLKSLVQ | inactive
151 | TASVLNYFSGFWRGV | 1.04 ± 0.17
152 | VWRWGDLNSSGCCMWSRLNM | 1.99 ± 0.1
153 | TWCAHS | inactive
154 | LRVILQLYIEGLIVQ | inactive
155 | TEVPFRVSF | inactive
156 | NVQSSGSRGAR | inactive
157 | NMSPGEP | inactive
158 | KFGHSVKSINLLNATTHVWI | -0.126 ± 0.47
159 | QFCSSYWYQGTAYCLLPIAT | inactive
160 | LGGYFLFNIITVGSTGMRKH | 2.06 ± 0.089
